Experimental data from the supplement of paper PMC10126150.
± gives the standard deviation of the averaged measurements.

Tested on: ATP
Test: switch fluorescence ratio, 500 uM ATP over buffer (Cy3 cluster intensity, sum of 5 cycles each) (fold (ratio)); higher = stronger signal-on switching upon ATP binding; sequences stand for … in TCGTCGGCAGCGTCAGATGTGTATAAGAGACAGTTTTTTTTTTTTTTTTTTTTTTTTT…TC
Settings: aptamer strand: ATP DNA aptamer (quencher-CACCTGGGGGAGTATTGCGGAGGAAGG + anchor), 100 nM annealed; ATP concentration: 500 uM
Summary of the method: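 Per cluster, summed Cy3 intensity from the target cycles was divided by that from the buffer cycles to give the fluorescence ratio, then averaged per switch-domain sequence. Clusters outside 100-1000 RFU were excluded. The Cy3-labelled switching-strand clusters, on a modified Illumina MiSeq flow-cell, were annealed to 100 nM quencher-labelled ATP aptamer and imaged in selection buffer, then after 15 min with 500 uM ATP at 22 °C, for five cycles with NaOH stripping and re-annealing between them.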
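Also: ATP exposure 15 min at 22 °C before imaging.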

| Sequence | switch fluorescence ratio |
| --- | --- |
| ACTCAGGGGG | 1.27 ± 0.32 |
| ACTCATTCGG | 1.01 ± 0.015 |
| ACTCGCGGGT | 1.04 ± 0.021 |
| ACTCGGGACG | 0.9715 ± 0.0067 |
| ACTCGGGCAG | 0.9937 ± 0.002 |
| ACTCGGGGGG | 0.991 ± 0.023 |
| ACTCGGGTAC | 1.79 ± 0.15 |
| ACTCGTAATC | 3.04 ± 0.48 |
| ACTCGTAGCA | 1.19 ± 0.012 |
| ACTCGTCACA | 1.15 ± 0.059 |
| ACTCTAGTTC | 1.063 ± 0.01 |
| ACTCTATAAT | 1.146 ± 0.0092 |
| ACTCTTATTG | 0.988 ± 0.0039 |
| ACTCTTGTTG | 1.01 ± 0.022 |
| ACTGAAAAAG | 0.987 ± 0.019 |
| ACTGACTGGT | 1.06 ± 0.037 |
| ACTGATAGAG | 1.02 ± 0.065 |
| ACTGATAGGC | 1.18 ± 0.23 |
| ACTGATCATG | 1.02 ± 0.028 |
| ACTGATGAAT | 1.06 ± 0.023 |
| ACTGATGATC | 1.016 ± 0.0039 |
| ACTGATTTTT | 1.015 ± 0.0036 |
| ACTGGAAGTC | 0.9875 ± 0.0088 |
| ACTGGATGCT | 0.995 ± 0.12 |
| ACTGGCAGC | 1.05 ± 0.017 |

| Sequence | switch fluorescence ratio |
| --- | --- |
| ACTGGCAGGG | 1.01 ± 0.028 |
| ACTGGGAGGC | 1 ± 0.096 |
| ACTGGGCATG | 1.01 ± 0.032 |
| ACTGGGCCGG | 1.04 ± 0.065 |
| ACTGGGGGCT | 0.975 ± 0.0098 |
| ACTGGGGTAG | 1.02 ± 0.061 |
| ACTGGGTCCG | 1 ± 0.057 |
| ACTGGTCTCA | 1.002 ± 0.0098 |
| ACTGTAAGTC | 1.06 ± 0.026 |
| ACTGTACGGC | 1.46 ± 0.016 |
| ACTGTATACG | 1.08 ± 0.026 |
| ACTGTCCCGT | 1.019 ± 0.0029 |
| ACTGTGCGAC | 1.58 ± 0.025 |
| ACTGTGCGTA | 1.03 ± 0.054 |
| ACTGTGCTCT | 1.02 ± 0.016 |
| ACTGTGGGCA | 1.01 ± 0.02 |
| ACTGTTAATG | 1.01 ± 0.026 |
| ACTGTTAGAT | 1.02 ± 0.054 |
| ACTGTTAGGT | 1.036 ± 0.0055 |
| ACTGTTAGTG | 1.02 ± 0.034 |
| ACTGTTTTCC | 1.066 ± 0.0042 |
| ACTGTTTTCG | 1.02 ± 0.028 |
| ACTTAAAGTC | 0.973 ± 0.029 |
| ACTTAACCGG | 1.05 ± 0.016 |
| ACTTAAGAAA | 1.16 ± 0.13 |

| Sequence | switch fluorescence ratio |
| --- | --- |
| ACTTAAGGTC | 1.001 ± 0.0035 |
| ACTTAATCGT | 1.02 ± 0.045 |
| ACTTACATGG | 1.23 ± 0.06 |
| ACTTACTTTA | 1.18 ± 0.04 |
| ACTTAGAAAT | 1.046 ± 0.01 |
| ACTTAGCATT | 1.14 ± 0.024 |
| ACTTAGTCA | 1.02 ± 0.021 |
| ACTTAGTCCA | 1.03 ± 0.034 |
| ACTTAGTGCC | 1.087 ± 0.0073 |
| ACTTAGTTTT | 1.0386 ± 0.00082 |
| ACTTATAATA | 1.04 ± 0.038 |
| ACTTATTAAT | 1.03 ± 0.027 |
| ACTTATTGAA | 1.11 ± 0.17 |
| ACTTCAAGGG | 1.26 ± 0.34 |
| ACTTCACTGC | 1.34 ± 0.042 |
| ACTTCATGGG | 1.01 ± 0.029 |
| ACTTCCCAAC | 1.33 ± 0.047 |
| ACTTCCGCGA | 1.75 ± 0.11 |
| ACTTCGGTTT | 1.01 ± 0.035 |
| ACTTCTCTTA | 1.01 ± 0.013 |
| ACTTCTGGTG | 1.23 ± 0.031 |
| ACTTGAGGAT | 1 ± 0.017 |
| ACTTGATAGG | 1.03 ± 0.041 |
| ACTTGATGGG | 0.992 ± 0.045 |
| ACTTGCTTGT | 1.02 ± 0.013 |

| Sequence | switch fluorescence ratio |
| --- | --- |
| ACTTGGCGCT | 1.034 ± 0.0095 |
| ACTTGGGGAG | 1 ± 0.014 |
| ACTTGTAGAT | 1.009 ± 0.0059 |
| ACTTGTCATC | 0.992 ± 0.043 |
| ACTTTACAAA | 1.28 ± 0.036 |
| ACTTTACTTA | 1.33 ± 0.02 |
| ACTTTAGATT | 1.04 ± 0.0053 |
| ACTTTATGTG | 0.996 ± 0.035 |
| ACTTTCCGTT | 1.1 ± 0.05 |
| ACTTTCGATT | 1.09 ± 0.13 |
| ACTTTGGAGA | 1.029 ± 0.0054 |
| ACTTTGGTGC | 1.03 ± 0.026 |
| ACTTTTACAT | 1.13 ± 0.025 |
| ACTTTTCTCG | 1.01 ± 0.011 |
| ACTTTTCTCT | 1.02 ± 0.021 |
| ACTTTTGCTG | 0.983 ± 0.019 |
| ACTTTTGGCG | 1 ± 0.071 |
| ACTTTTTAGG | 1.01 ± 0.044 |
| ACTTTTTTAA | 1.004 ± 0.0029 |
| ACTTTTTTTT | 1.01 ± 0.034 |
| AGAAAAAGTT | 1.017 ± 0.0048 |
| AGAAAAGGGG | 1.01 ± 0.054 |
| AGAAAATTAC | 2.42 ± 2 |
| AGAAAATTCG | 0.981 ± 0.024 |
| AGAAAATTTC | 1.04 ± 0.051 |

| Sequence | switch fluorescence ratio |
| --- | --- |
| AGAAACGGAA | 1.27 ± 0.35 |
| AGAAACGGAG | 1.02 ± 0.016 |
| AGAAAGGAGT | 0.9982 ± 0.0032 |
| AGAAATAATC | 1.01 ± 0.015 |
| AGAAATTTGA | 0.98 ± 0.013 |
| AGAACGCGTA | 1.03 ± 0.013 |
| AGAACGGTAT | 1.048 ± 0.0034 |
| AGAACGTCTG | 0.9969 ± 0.0022 |
| AGAACGTTCT | 0.9851 ± 0.0059 |
| AGAACTGTGA | 0.9889 ± 0.0037 |
| AGAACTTAAG | 1.01 ± 0.037 |
| AGAAGCCCCT | 0.992 ± 0.031 |
| AGAAGCTATT | 0.9724 ± 0.0017 |
| AGAAGGCGGC | 1 ± 0.023 |
| AGAAGGGAGG | 0.987 ± 0.011 |
| AGAAGGGCGG | 0.99 ± 0.037 |
| AGAAGTAATG | 0.997 ± 0.011 |
| AGAATAAAGG | 0.993 ± 0.05 |
| AGAATAGGCG | 1.02 ± 0.022 |
| AGAATATCGT | 0.984 ± 0.043 |
| AGAATATTCT | 0.98 ± 0.014 |
| AGAATCGTAT | 1.01 ± 0.028 |
| AGAATGAGTG | 1.026 ± 0.0048 |
| AGAATGATTA | 0.986 ± 0.01 |
| AGAATGCTTT | 0.9971 ± 0.0034 |

| Sequence | switch fluorescence ratio |
| --- | --- |
| AGAATGGTAT | 1.07 ± 0.08 |
| AGAATGGTGT | 1.02 ± 0.038 |
| AGAATGGTTT | 0.985 ± 0.03 |
| AGAATGTTTC | 0.973 ± 0.021 |
| AGAATTCAAC | 1.003 ± 0.004 |
| AGAATTGAGG | 0.979 ± 0.016 |
| AGACAAGGGC | 1.06 ± 0.084 |
| AGACACGGGG | 1.06 ± 0.02 |
| AGACAGGGAC | 1.04 ± 0.016 |
| AGACAGGGAG | 1.01 ± 0.031 |
| AGACCATAGA | 1.02 ± 0.024 |
| AGACCTTCTT | 1.51 ± 0.025 |
| AGACCTTGGT | 0.963 ± 0.03 |
| AGACGCGCCA | 1.05 ± 0.087 |
| AGACGGAAAG | 0.982 ± 0.015 |
| AGACGGAACT | 1.08 ± 0.025 |
| AGACGGTATT | 1.056 ± 0.0039 |
| AGACGTCCCA | 1.02 ± 0.022 |
| AGACTCGCCC | 1.12 ± 0.059 |
| AGACTGCATT | 1.06 ± 0.03 |
| AGACTGTTGA | 1.04 ± 0.019 |
| AGAGAAAGGG | 1.02 ± 0.035 |
| AGAGAACCCT | 1.08 ± 0.048 |
| AGAGAAGGGA | 1.002 ± 0.0071 |
| AGAGAAGGGT | 0.996 ± 0.017 |

| Sequence | switch fluorescence ratio |
| --- | --- |
| AGAGAATATT | 1.03 ± 0.039 |
| AGAGAATGCG | 1.02 ± 0.049 |
| AGAGACACGG | 1.03 ± 0.079 |
| AGAGAGAGTT | 0.974 ± 0.032 |
| AGAGAGGAGG | 0.997 ± 0.066 |
| AGAGAGGCTA | 1 ± 0.015 |
| AGAGAGGTCA | 0.997 ± 0.042 |
| AGAGAGTAGA | 1.02 ± 0.021 |
| AGAGAGTTTA | 1.04 ± 0.021 |
| AGAGATACTT | 1.01 ± 0.035 |
| AGAGATTGCC | 1.0678 ± 0.0008 |
| AGAGATTTAT | 0.988 ± 0.019 |
| AGAGCATACT | 2.12 ± 0.22 |
| AGAGCATAGG | 1.03 ± 0.048 |
| AGAGCCCTTA | 1.01 ± 0.014 |
| AGAGCCGCTG | 1.02 ± 0.068 |
| AGAGCCGGGG | 0.9777 ± 0.003 |
| AGAGCCGGTG | 1 ± 0.041 |
| AGAGCGAGGA | 0.986 ± 0.027 |
| AGAGCGGTTG | 0.969 ± 0.037 |
| AGAGCGTTAG | 1.02 ± 0.051 |
| AGAGCTATAA | 1.254 ± 0.0015 |
| AGAGCTGCCT | 1.06 ± 0.042 |
| AGAGGAGTTA | 0.985 ± 0.011 |
| AGAGGATGTA | 1 ± 0.056 |

| Sequence | switch fluorescence ratio |
| --- | --- |
| AGAGGATTTG | 1.02 ± 0.022 |
| AGAGGCAGCT | 1.03 ± 0.046 |
| AGAGGCCATC | 0.9831 ± 0.0098 |
| AGAGGCTAGG | 1.01 ± 0.032 |
| AGAGGCTGAA | 1 ± 0.012 |
| AGAGGCTGAT | 0.983 ± 0.014 |
| AGAGGCTGGT | 0.992 ± 0.017 |
| AGAGGCTGTT | 1.03 ± 0.041 |
| AGAGGGAGGA | 1.017 ± 0.0086 |
| AGAGGGATCT | 1.022 ± 0.0072 |
| AGAGGGGAGG | 0.988 ± 0.0054 |
| AGAGGGGGG | 0.99 ± 0.017 |
| AGAGGGGGGT | 0.99 ± 0.022 |
| AGAGGGGGTA | 0.997 ± 0.022 |
| AGAGGGGTTC | 1.01 ± 0.029 |
| AGAGGTAAT | 1.09 ± 0.12 |
| AGAGGTGTCT | 1 ± 0.049 |
| AGAGGTTCC | 1 ± 0.058 |
| AGAGTAAAGC | 0.996 ± 0.02 |
| AGAGTAGAGG | 1.01 ± 0.028 |
| AGAGTATTTA | 0.991 ± 0.011 |
| AGAGTCAAGT | 0.969 ± 0.017 |
| AGAGTCCGCT | 1.18 ± 0.084 |
| AGAGTCGAGG | 0.968 ± 0.047 |
| AGAGTGCGTA | 0.989 ± 0.023 |
